Test results: publication PMC10617019 (Nature cell biology, 2023)
Where no end group is shown, it is not given here. [ ]: non-standard residue; d: D form. Hyp = O=C(O)[C@@H]1C[C@@H](O)CN1

Target: pVHL in complex with elongin C and elongin B (VCB) (human, UniProt P40337 55-213; Q15370 1-118)
Experiment: fluorescence polarisation

Kd: 5.9 µM
Binder: TLYYMA[Hyp]EHLNDVNA (also: FITC label, position not given here) [Fluorescein isothiocyanate-labelled RIPK1 peptide T189LYYMA(Hyp)EHLNDVNA203]
